According to PMC5368172:

Experiments:
[1] = biological target: SCM on the surface of S. canis strain G361 (Streptococcus canis (endogenous in strain G361)); experiment: radioligand binding; iodinated IgG or iodinated plasminogen incubated with whole S. canis bacteria, gamma-counting, percent bound; inhibition with 1.0 μM non-labeled IgG or plasminogen
[2] = biological target: HRP-conjugated human IgG (human); experiment: ELISA; competitive: wells coated with 5 μg full length SCM; HRP-conjugated human IgG (1:200) pre-incubated 15 min with 10 μg SCM, FOG or KO173225, then added for 2 h

Substance | percent bound [1] [%] | percent bound with excess non-radiolabeled plasminogen [1] [%] | IgG binding to immobilized SCM left after pre-incubation of IgG with 10 μg SCM, percent [2] [%]
human plasminogen (natural protein) | 37.1 | 23.3 | –
recombinant SCM, the M protein of Streptococcus canis (natural protein) | – | – | 20
